Data: US20210380703A1
Residue numbers refer to the chain shown, from its start.

B1: 369_H08 (antibody, V domains shown)
VH: EVQLLESGGGLVQPGGSLRLSCAASGFTFSSYSMNWVRQAPGKGLEWVAGINYNSGYKSYADSVKGRFTISRDNSKNTLYLQMNSLRAEDTAVYYCARGATWHDTHLDYWGQGTLVTVSS
VL: DIQMTQSPSSLSASVGDRVTITCRASQSILSYVNWYQQKPGKAPKLVIYAATSLASGVPSRFSGSGSGTDFTLTISSLQPEDFATYYCQQSYESPLTFGGGTKVEIK
B2: 369_H12 (antibody, V domains shown)
VH: B1 VH with S55G
VL: B1 VL with L30V, S31T, L54R, E93D
B3: 370_B08 (antibody, V domains shown)
VH: B1 VH with S31D, G50N, S55G, K58T, S59G
VL: B1 VL with V33L, V47L, T52S, A55Q, E93D
B4: 370_C07 (antibody, V domains shown)
VH: B1 VH with G50N, S55G
VL: B1 VL with V33L, V47L, L54R, A55H
B5: 370_D03 (antibody, V domains shown)
VH: B1 VH with G50S, S55G, K58T
VL: B1 VL with L30I, S31T, V33L, V47L, L54R, E93D, S94L
B6: 370_D09 (antibody, V domains shown)
VH: B1 VH with S31D, A49S, K58T
VL: B1 VL with L30V, S31T, V33L, L54R, E93D, S94T
B7: 370_E04 (antibody, V domains shown)
VH: B1 VH with G50N, S55G, S59G
VL: B1 VL with S31T, V33L, V47L, A51V, A55H, S94T
B8: 370_E05 (antibody, V domains shown)
VH: B1 VH with S33G, A49S, G50N, S55G, S59G
VL: B1 VL with L30S, S31T, V33L, A51V, L54R, E93N
B9: 370_F01 (antibody, V domains shown)
VH: B1 VH with S33G, A49S, G50N, S55G, K58T
VL: B1 VL with L30V, V33L, V47L, L54R, E93D
B10: 370_F02 (antibody, V domains shown)
VH: B1 VH with S30D, S33G, G50N, S55G, K58T, S59G
VL: B1 VL with V33L, V47L, A51V, L54R, A55H, E93D
B11: 370_F12 (antibody, V domains shown)
VH: B1 VH with S31D, G50N, S55G, K58T, S59G
VL: B1 VL with V33L, V47L, T52S, A55Q, E93D
B12: 370_G08 (antibody, V domains shown)
VH: B1 VH with S31D, S55G, K58T, S59G
VL: B1 VL with S31T, V33L, L54R
B13: 370_H04 (antibody, V domains shown)
VH: B1 VH with A49S, G50N, S55G, K58T, S59G
VL: B1 VL with V47L, L54R, E93D, S94L
B14: 370_H06 (antibody, V domains shown)
VH: B1 VH with S30D, S31D, G50N, S55G, K58T, S59G
VL: B1 VL with S31T, V33L, V47L, L54R, S94T
B15: 371_B01 (antibody, V domains shown)
VH: B1 VH with S30D, A49S, G50N, K58T, S59G
VL: B1 VL with V47L, E93D, S94L
B16: 371_C06 (antibody, V domains shown)
VH: B1 VH with A49S, G50S, S55G, K58T
VL: B1 VL with L30S, V33L, V47L, A51V, L54R, E93D, S94L
B17: 371_C07 (antibody, V domains shown)
VH: B1 VH with S30D, S33G, A49S, G50N, S55G, K58T, S59G, H106A
VL: B1 VL with V33L, V47L, E93D, S94T
B18: 371_E08 (antibody, V domains shown)
VH: B1 VH with A49S, G50N
VL: B1 VL with L30V, L54R, A55H, E93D, S94L
B19: 371_E09 (antibody, V domains shown)
VH: B1 VH with S31D, A49S, K58T
VL: B1 VL with S31T, V33L, V47L, L54R, E93N
B20: 371_E12 (antibody, V domains shown)
VH: B1 VH with S30D, A49S
VL: B1 VL with V33L, V47L, E93D, S94T
B21: 371_F03 (antibody, V domains shown)
VH: B1 VH with A49S, S55G, K58T
VL: B1 VL with L30I, S31T, V33L, V47L, A55H, E93D, S94N
B22: 371_F09 (antibody, V domains shown)
VH: B1 VH with S55G, K58T
VL: B1 VL with S31T, V33L, V47L, L54R, E93D, S94N
B23: 371_G01 (antibody, V domains shown)
VH: B1 VH with S31D, A49S, G50N, S55G, K58T
VL: B1 VL with S31T, V33L, V47L, E93D, S94L
B24: 371_H11 (antibody, V domains shown)
VH: B1 VH with A49S, S55G, S59G
VL: B1 VL with S31T, V33L, V47L, A51T, L54R, A55H
B25: 372_B09 (antibody, V domains shown)
VH: B1 VH with A49S, G50S, K58T
VL: B1 VL with S31T, V33L, V47L, L54R, S94T
B26: 372_E08 (antibody, V domains shown)
VH: B1 VH with S31D, A49S, G50N, S55G, K58T
VL: B1 VL with L30I, S31T, V33L, V47L, L54R, E93N, S94L
B27: 372_H11 (antibody, V domains shown)
VH: B1 VH with S33G, N35H, S55G, K58T
VL: B1 VL with V47L, L54R, S94N
B28: 373_B09 (antibody, V domains shown)
VH: B1 VH with S30D, A49S, S55G
VL: B1 VL with V33L, S94T
B29: 373_D06 (antibody, V domains shown)
VH: B1 VH with S55G, K58T
VL: B1 VL with L30V, S31T, V33L, V47L, L54R, E93D, S94T
B30: 373_F07 (antibody, V domains shown)
VH: B1 VH with A49S
VL: B1 VL with V33L, V47L, S94T
B31: 374_A04 (antibody, V domains shown)
VH: B1 VH with S55G, K58T
VL: B1 VL with S31T, V33L, L54R, E93D, S94T
B32: 374_A05 (antibody, V domains shown)
VH: B1 VH with S31D, S33G, G50N, S55G, S59G
VL: B1 VL with L30V, S31R, V33L, S94L
B33: 374_D04 (antibody, V domains shown)
VH: B1 VH with S55G, K58T
VL: B1 VL with V33L, L54R, A55H, E93D, S94T
B34: 374_D09 (antibody, V domains shown)
VH: B1 VH with S30D, S33G, G50N, S55G, S59G
VL: B1 VL with L30I, V47L, E93D, S94T

Target: Human Fc (human)
Assay: ELISA; negative control

Binder	optical density
B1	0.389 OD
B2	0.414 OD
B3	0.302 OD
B4	0.316 OD
B5	0.57 OD
B6	0.287 OD
B7	0.292 OD
B8	0.427 OD
B9	0.407 OD
B10	0.376 OD
B11	0.457 OD
B12	0.364 OD
B13	0.596 OD
B14	0.358 OD
B15	0.464 OD
B16	0.308 OD
B17	0.287 OD

Binder	optical density
B18	0.251 OD
B19	0.306 OD
B20	0.398 OD
B21	0.252 OD
B22	0.602 OD
B23	0.375 OD
B24	0.363 OD
B25	0.308 OD
B26	0.369 OD
B27	0.392 OD
B28	0.172 OD
B29	0.192 OD
B30	0.172 OD
B31	0.275 OD
B32	0.159 OD
B33	0.179 OD
B34	0.171 OD
